# The nanobody polyreactivity screen of Harvey et al. (2022)
# Experiment: yeast display, Sf9 membrane polyspecificity reagent, FACS + sequencing; frameworks hold sequencing errors
# How it was run: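 Polyreactivity labels are assigned by the sorting gate from which each nanobody was recovered. The gates were low and high (top ~1%), set on anti-HA fluorescence for expression and streptavidin fluorescence for reagent binding. Before sorting, galactose-induced (36–48 hours) yeast display cells were stained for 1 hour at 4 °C with 10% biotinylated, detergent-solubilized Sf9 membrane reagent.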
row,Sequence,polyreactivity (PSR sort gate)
1,LVQLVESGGRLVQAGGSLRLSCAASGRTFPAYTMGWYRQSPGKERDLVAANYSSGGTTYYADSVKGRFTISRDNAKNTVYLQIYSINPEDNAVYYCNAYLGYYYYYLDALIGYDYWGQGTQVTVSS,low polyreactivity
2,QVQLVESGGGLVQAGGSLRLSCAASGRIFGSNAMGWYRQAPGKERELVAAISWRGASTYYADSVKGRFTISRDNAKNTVYLQMNSLIPEDTAVYYCFLRGRATQWDFGYWGQGTQVTVSS,high polyreactivity
3,QVQLVESGGGLVQAGGSLRLSCAASGLTFGTNSMGWYRQAPGKEMELVAAINRGGGSTYYADSVKGRVTISRDNAKNTVYLQMNSLKPEDTAVYYCAKSYSGSRTSDYWGQGTQVTVSS,high polyreactivity
4,QVQLVESGGGLVQAGRILRLSCAASGRTFDSNAMGWYRQAPGKERELVAAISYGGGTTHYADSVKGRFTISRDNAKNTVYLQMNSLKPEYTAVYYCSADPEHLCESVTIGEYDYWGQGTQVTLSS,low polyreactivity
5,QVQLVESGGGLVQAGGSLRLSCAASGRTFRYYAMGWYRQAPGKERELVAAIDTSSGSTYYADSVKGRFTISRDYAKNTVYLQMNSLKPEDTAVYYCNANWWIPLIYDYWGQGTQVTVSS,low polyreactivity
6,QVQLVESGGGLVQAGGSLRLSCAASGSIFRFYAMGWYRQAPGQERELVAAITSGGSTNYADSVKGRFTISRDNAKNTVYLQMNSLKPEDTAVYYCAAVLVYFFIYDYWGQGTQVTVSS,low polyreactivity
7,QVQLVESGGGLVQAGGSLRLSCDASGRTFWRYAMGWYRQAPGKERELVATISSGGSTNYADSVKGRFTISRDNAKNTVYLQMNSLKPEDTAVYYCNAEYSYYDLLAYDYWGQGTQVTVSS,low polyreactivity
8,QVQLVESGGGLVQAGGSLRLSCAASGYIFEYYAMGWYRQAPGKDRELVAAISWSGGSTYYADSVKGRFTISRDNAKNTVYLQMNSLKPEDTAVYYCAAESYLPYWDSYYRYDYWGQGTQVTVSS,low polyreactivity
9,QVQLVESGGGLVQAGGSLRLSCAASGSIFENNAMGWYRQAPGKERELVAAISSDDTTNYADSVKGRFTISRDNAKNTVYLQMNSLKPEDTAVYYCATDYDVYGYPYDYGYWGQGTQVTVSS,low polyreactivity
10,QFQLEESGGGLVQAGGSLRLSCAASGSTFGDYAMGWYRQAPGKERVLVAAINFSDGSTYYADSVKGRFTISRDNAKNTVYLQMNSLKPEDSAVYYCAKQGYLVWSGWRWYDYWGQGTQGTVSS,low polyreactivity
11,QVQLVESGGGLVQAGGSLRLSCAASGRIFFVYAMGWYRQAPGKERELVAAISVSDVSTSYADSVKGRFTISRDNAKNTVYLQMNSLKPEDTAVYYFNAGFRFYTYSRIAGEDYGGQGTQVTVSS,low polyreactivity
12,QVQLVESGGGLVQAGGILRLSCAASGRTFDSNAMGWYRQAPGKERELVAAISWSGGSTYYADSVKGRFTISRDNAKNTVYLQMNSLKPEDTAVYYCNRLGRHAPATRYGYWGQGTQVTVSS,high polyreactivity
13,QVQLVESGGGLVQAGGSLRLSCAASGRIFFENTMGWYRQAPGKERELVAAISSSGTTNYADSVKGRFTISRDNAKNTVYLQMNSLKPEDTAVYYCNAVLHGEQVGKYIAYVYWGQGTQVTVAS,low polyreactivity
14,QVQLVESGGGLVQAGGSLRLSCAASGRTRGVNAMGWYSQAPGKERELVAAITRRGGSTSYADSVKGRFTISRDNEKNTVYLHMNSLKPEDTAVYYCAAGVIREKYYIWSDYEYDYWGQGTQVTVSS,low polyreactivity
15,QVQLVESGGGLVQSGGSLRLSCAASGRIIIRYAMGWYIQEPGKERELVAAISKNGGTTYYADSVKGRFTISRDNAKYTVYLQMNSLKPVDTAVYYGAKRLVSRGRTYAYPEYDYWGQGTQVTVSS,high polyreactivity
16,QVQLVESGGGLVQAGGSLRLSCAASGRTFLRYAMGWYRQAPGKERELVAAISSRGGSTYYADSVKGRFTISRDNAKNTVYLQMNSLKPEDTAVYYCAARFLHYYPTRGYTYDYWGQGTQVTVSS,high polyreactivity
17,QVQLVESGGGLVQEGGSLRLSCAASGSIFYNAMGWTRQAPGKERELVAAISSRGASTYYADSVKGRFTISRDNAKNTVYLLMNSLKPEDTAVYYCAKDNRYPYPSGLDYWGQGTQVTVSS,high polyreactivity
18,QVQLVESGGGLVQAGGSLRLSCAASGRTSYYYAMGWSRQAPGKERELVAAISRSGGRTYYADSVKGRFTISRDNAKNTVYLQMNSLKPEDTAVYYCAADPRSYDTGRMDYWGQGTQVTVSS,high polyreactivity
19,QVQLVESGGGLVQAGGSLRLSCAASGRIFRVYAMGWYRQAPGKERELVAAISWSGGRTYYADSVKGRFTISRDNAKNTVYLQMNSLKPEDTAVYYCAAVSCYALGFDYWGQGTQVTVSS,high polyreactivity
20,QVQLVESGAGLVQAGGSLRLSCAASGFIFAGNAMGWYIQAPGKERELVAAITRRGGSTHYADSVKGRFTISRDKAKNTVYLQMNSLKPEDTAVYYCNAAVQPPLSDYWGQGTQVTVSS,low polyreactivity
21,QVQLVESVRGLVQAGGSLRVSCAASGRTFIVYAMGWYRQAPGKERELVAGITRGSTKYADSVKGRFTISRDNAKNTVYLQMNSLKPEDTAVYYCAGRSSRRGPISEGDYWGQGTQVTVSS,high polyreactivity
22,QVQLVESGGGLVQAGGSLRLSCAASGRTFHYNAMGWYRQAPGKERELVAAISFNGGGTYYADSVKGRFTISRDNAKNTVYLQMNSLKPEDTAVYYCNVDAAGSNSHARHDSWGQGTQVTVSS,low polyreactivity

row,Sequence,polyreactivity (PSR sort gate)
1,QVQLVESGGGLVQAGGSLRLSCAASGFTFRYYAMGWYRQEPGKERELVAAISRSDSRTYADSVKGRFTISRDNAMNTVYIQMNSLNPEDTAVYYCNARYGYSSYVFIFDYWGQGTQVTVSS,high polyreactivity
2,QVQLVESGGGLVQAGGSLRLSCAASGSTFYSYAMGWYRQAPGKERELVAAISSSAGSTYYADSVKGRFTISRDNAKNTVYLQMNSLKPEDTAVYYCAAPKRYGVRYGYWGQGTQVTVSS,high polyreactivity
3,QVQLVESGGGLVQEGDSLRLSCAASGIIFLWYTLGLYRPAPGKERELVATISWGGGSTYADSVKGRFTISRDNAKNTVYLQMNSLKPEDTAVYYCAADNRYFRGQAYDYWGQGTQVTVSS,low polyreactivity
4,QVQLVESGGGLVQAGGSLRLSCAASGITFHGYAMGWYRQAPGTERELVAAISDSGSSTYYADSVKGRFTISRDNAKNTVYLQMNSLKPEDTAVYYCAAVSGFYDQYDYWGQGTQVTVSS,low polyreactivity
5,QVQLVESAARLVQAGASLPLSCPASGRIFYTNAMGCYRQAPGKERELVAVMSWGGDTTYYADSVKGRFTISRDNATNTVYLQMNSLKPEDSAVYYCNAYSGPTYEIYDSWGLGTQVTVSS,low polyreactivity
6,QVQLVESGGGLVQAGGSLRLSCAASGIIFSTYAMGWYRHAPWKERELVAAITRGDSTNYADSVKGRFTISRDNAKNTVYLQMNSLKPEDTAVYYCAVDKRYGRVVGRDYDYWGQGTQVTVSS,high polyreactivity
7,QVQLVESGGGLVQAGGSLRLSCAASGRTFVGNTMGWYRQAPGKERELVAAISTGDGSTTYADSVKGRFTISRDNAKNTVYLQMNSLKPEDTAVYYCNVKYRASYRTDFEYWGLGTQVTVSS,low polyreactivity
8,QVHLVESGGGLVQAGGSLRLSCAASGSTFGTYAMGWYRQAPGKERELVAAISNSGGSTYYADSVKGRFTISRDYAKNTVYLQMNSLKPEDTAVYYCNTDGLVRNGPFYSWGQGTQVTVSS,low polyreactivity
9,QVQLVESGGGLVQAGGSLRLSCAASGSIFTVNAMGWYRQAPGKERELVAAIDGSSGSTNYADSVKGRFTISRDNAKNTVYLQMNSLKPEDTAVYYCAADWSYEYGYWGQGTQVTVSS,low polyreactivity
10,QVQLVESGGRLVQAGGSLRLSCAASGSTFYFYAMGWYRQEPGKERELVAAISFTDTSTYYADSVKARFTISRDNAKNNVYLQMNSLKPEDTAVYYCAADSDYWGQGTQVTVSS,high polyreactivity
11,QVQLVESGGGLVQAGGSLRLSCAASGFIFDGYAMGWYRQAPGKERELVAAIDSGGDRTYYADSVKGRFTISRDNAMNTVYLQMNSLKPEDTAVYYCAADSSDPTGYDYWGQGTQVTVSS,low polyreactivity
12,QVQLVESGGGLVQAGGSLRLICAASGLIFRGYAKGWYRQAPGKERELVAAISKSGGSTYYADSVKGRFTISRDNAKNTVYLQMNSLKPEDTAVYYCNTDYVWKYFLSSQYDYWGQGTQVTVSS,high polyreactivity
13,QVQLVESGGGLVQAGGSLRLSCAASGGTLRYYVMGWYRQAPGKDRELVAAISWAGDSTYYADSVKGRFTISRDNAKNTVYLQMNSLKPEDTAVYYCAATYYLTYYSGQANHGYDYWGQGTQVTVSS,low polyreactivity
14,QVQLVESGGGLVQAGGSLRLSCAASGRIFQHNTMGWYRQAPGKERELVAAITRGGRTNYADSVKGRFTISRDNAKNTVYLQMNSLKPEDTAVYYCAARYVERHTDYYYWGQGTQVTVSS,low polyreactivity
15,QVQLVESGGGLVQAGGSLRLSCAASGITFPDYDMGWYRQAPGKERELVAAITYRSGSTYYADSVKGRFTISRDNAKNTVYLQMNSLKPEDTAVYYCAATVRGVGYRYYYWGQGTQVTVSS,high polyreactivity
16,QVHLVESGVGLFQAGGSLRLSCAASGIIFRYYTMEWYIQAPGKEREVVAVITRGCSTYYADSVMGRFTISRDNAKYSVYLQMNSLKPVDTAVYFCAALRYKLPLGYWGQGTQVTVSS,high polyreactivity
17,QVQLVESGGGLVQAGCSLRLSCAASGIIFALNAMGWYRQAPGKERELVAAISDGDSTHYADSVKGRFTISRDNAKNTVYLQMNSLKPEDTAVYYCAVDNRDLFFYPGGFDYWGQGTQVTVSS,low polyreactivity
18,QVQLVESGGGLVQAGGSLRLSCAASGSTFTWYAMGWYRQAPGKERELVAAISRGGSTNYADSVKGRFTISRDNAKNTVYLQMNSLKPEDTAVYYCAAESYWRDDYWGQGTQVTVSS,low polyreactivity
19,QVQLVESGGGLVQAGGSLRLSCAASGSIFRYNAMGWYRQAPGKEREFVAAITRSGGSTYADSVKGRFTISRDNAKNTVYLQMNSLKPEDTAVYYCAATFKWYSHTKPRFDYWGQGTQVTVSS,low polyreactivity
20,QVQLVESGGGLVQAGGSLRLSCAASGRTFGRYAMGWYRQAPGKERELVATITRGDSTYYADSVKGRFTISRDNAKNKVYLQMNSLKPEDTAVYYCAADWHRWYLDYDYWGQGTQVTVSS,low polyreactivity
21,QVQLVESGGGLVQAGGSLRLRCAASGSTFYGNTMGWNRQAPGKERELVAAITWTGGRTYYADSVKGRFTISRDNAKNTVYLQMNSLIPEDTAVYYCARGASFYQKFYYWGQGTQVTVSS,high polyreactivity
